From US20240002531A1 (ONO PHARMACEUTICAL, published 2024)
Each block holds one binder with its values, some of them ahead of it.

How the values were obtained:
Experiment in all cases: SPR Biacore, mAb on chip, peptide analyte, 1:1 fit
HER2 peptide p610-622 = target: T1, HER2 peptide p610-622 (human)
T1 peptide: YMPIWKFPDEEGA

HER2 peptide p612-618 = target: T2, HER2 peptide p612-618 (human)
T2 construct: also called PIWKFPD
T2 peptide: PIWKFPD

HER2 peptide p609-621 = target: T3, HER2 peptide p609-621 (human)
T3 peptide: SYMPIWKFPDEEG

HER2 peptide p614-622 = target: T4, HER2 peptide p614-622 (human)
T4 peptide: WKFPDEEGA

HER2 peptide p610-621 = target: T5, HER2 peptide p610-621 (human)
T5 peptide: YMPIWKFPDEEG

HER2 peptide p612-620 = target: T6, HER2 peptide p612-620 (human)
T6 peptide: PIWKFPDEE

HER2 peptide p612-619 = target: T7, HER2 peptide p612-619 (human)
T7 peptide: PIWKFPDE

HER2 peptide p611-618 = target: T8, HER2 peptide p611-618 (human)
T8 peptide: MPIWKFPD

HER2 peptide p609-619 = target: T9, HER2 peptide p609-619 (human)
T9 peptide: SYMPIWKFPDE

HER2 peptide p613-621 = target: T10, HER2 peptide p613-621 (human)
T10 peptide: IWKFPDEEG

HER2 peptide p611-619 = target: T11, HER2 peptide p611-619 (human)
T11 peptide: MPIWKFPDE

HER2 peptide p611-620 = target: T12, HER2 peptide p611-620 (human)
T12 peptide: MPIWKFPDEE

HER2 peptide p614-619 = target: T13, HER2 peptide p614-619 (human)
T13 peptide: WKFPDE

HER2 peptide p612-622 = target: T14, HER2 peptide p612-622 (human)
T14 peptide: PIWKFPDEEGA

HER2 peptide p609-622 = target: T15, HER2 peptide p609-622 (human)
T15 peptide: SYMPIWKFPDEEGA

HER2 peptide p611-622 = target: T16, HER2 peptide p611-622 (human)
T16 peptide: MPIWKFPDEEGA

HER2 peptide p610-620 = target: T17, HER2 peptide p610-620 (human)
T17 peptide: YMPIWKFPDEE

HER2 peptide p609-618 = target: T18, HER2 peptide p609-618 (human)
T18 peptide: SYMPIWKFPD

HER2 peptide p613-622 = target: T19, HER2 peptide p613-622 (human)
T19 peptide: IWKFPDEEGA

HER2 peptide p613-618 = target: T20, HER2 peptide p613-618 (human)
T20 peptide: IWKFPD

[1] = target: T21, HER2 peptide p603-622 (amino acids 603 to 622 of human HER2) (human)
T21 construct: Synthetic peptide; also called wild-type HER2 peptide
T21 peptide: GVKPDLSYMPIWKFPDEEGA

[2] = target: T22, D607A peptide (HER2 603-622 with D607A) (human)
T22 peptide: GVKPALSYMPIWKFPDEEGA

[3] = target: T23, P606A peptide (HER2 603-622 with P606A) (human)
T23 peptide: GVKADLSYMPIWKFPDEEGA

[4] = target: T24, G603A peptide (HER2 603-622 with G603A) (human)
T24 peptide: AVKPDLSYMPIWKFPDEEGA

Kd (HER2 peptide p610-622): 1.81 nM
koff (HER2 peptide p610-622): 0.00033 s⁻¹
kon (HER2 peptide p610-622): 183000 M⁻¹ s⁻¹
Kd (HER2 peptide p612-618): 1.92 nM
koff (HER2 peptide p612-618): 0.00057 s⁻¹
kon (HER2 peptide p612-618): 296000 M⁻¹ s⁻¹
Kd (HER2 peptide p609-621): 1.17 nM
koff (HER2 peptide p609-621): 0.000289 s⁻¹
kon (HER2 peptide p609-621): 247000 M⁻¹ s⁻¹
Kd (HER2 peptide p614-622): 2910 nM
koff (HER2 peptide p614-622): 0.00145 s⁻¹
kon (HER2 peptide p614-622): 498 M⁻¹ s⁻¹
Kd (HER2 peptide p610-621): 1.36 nM
koff (HER2 peptide p610-621): 0.000347 s⁻¹
kon (HER2 peptide p610-621): 256000 M⁻¹ s⁻¹
Kd (HER2 peptide p612-620): 4.39 nM
koff (HER2 peptide p612-620): 0.000756 s⁻¹
kon (HER2 peptide p612-620): 172000 M⁻¹ s⁻¹
Kd (HER2 peptide p612-619): 3.36 nM
koff (HER2 peptide p612-619): 0.000841 s⁻¹
kon (HER2 peptide p612-619): 250000 M⁻¹ s⁻¹
Kd (HER2 peptide p611-618): 0.869 nM
koff (HER2 peptide p611-618): 0.00031 s⁻¹
kon (HER2 peptide p611-618): 356000 M⁻¹ s⁻¹
Kd (HER2 peptide p609-619): 1.2 nM
koff (HER2 peptide p609-619): 0.000293 s⁻¹
kon (HER2 peptide p609-619): 244000 M⁻¹ s⁻¹
Kd (HER2 peptide p613-621): 10.5 nM
koff (HER2 peptide p613-621): 0.00343 s⁻¹
kon (HER2 peptide p613-621): 325000 M⁻¹ s⁻¹
Kd (HER2 peptide p611-619): 2.02 nM
koff (HER2 peptide p611-619): 0.000487 s⁻¹
kon (HER2 peptide p611-619): 240000 M⁻¹ s⁻¹
Kd (HER2 peptide p611-620): 2.65 nM
koff (HER2 peptide p611-620): 0.000387 s⁻¹
kon (HER2 peptide p611-620): 146000 M⁻¹ s⁻¹
Kd (HER2 peptide p614-619): 1380 nM
koff (HER2 peptide p614-619): 0.00118 s⁻¹
kon (HER2 peptide p614-619): 854 M⁻¹ s⁻¹
Kd (HER2 peptide p612-622): 3.74 nM
koff (HER2 peptide p612-622): 0.000724 s⁻¹
kon (HER2 peptide p612-622): 194000 M⁻¹ s⁻¹
Kd (HER2 peptide p609-622): 1.57 nM
koff (HER2 peptide p609-622): 0.00033 s⁻¹
kon (HER2 peptide p609-622): 210000 M⁻¹ s⁻¹
Kd (HER2 peptide p611-622): 2.02 nM
koff (HER2 peptide p611-622): 0.000378 s⁻¹
kon (HER2 peptide p611-622): 187000 M⁻¹ s⁻¹
Kd (HER2 peptide p610-620): 1.32 nM
koff (HER2 peptide p610-620): 0.000342 s⁻¹
kon (HER2 peptide p610-620): 260000 M⁻¹ s⁻¹
Kd (HER2 peptide p609-618): 0.803 nM
koff (HER2 peptide p609-618): 0.00021 s⁻¹
kon (HER2 peptide p609-618): 262000 M⁻¹ s⁻¹
Kd (HER2 peptide p613-622): 14 nM
koff (HER2 peptide p613-622): 0.00346 s⁻¹
kon (HER2 peptide p613-622): 247000 M⁻¹ s⁻¹
Kd (HER2 peptide p613-618): 4.45 nM
koff (HER2 peptide p613-618): 0.00289 s⁻¹
kon (HER2 peptide p613-618): 649000 M⁻¹ s⁻¹
B1: H2Mab-250 antibody (antibody, V domains shown)
VH: EVQLVESGGGLVQPGGSLKLSCAASGFTFSNYGMSWVRQTPDRRLELVATINNNGGGTYYPDSVKGRFTISRDNAKNTLYLQMSSLKSEDTAMYYCTSPGLLWDAWGAGTTVTVSS
VL: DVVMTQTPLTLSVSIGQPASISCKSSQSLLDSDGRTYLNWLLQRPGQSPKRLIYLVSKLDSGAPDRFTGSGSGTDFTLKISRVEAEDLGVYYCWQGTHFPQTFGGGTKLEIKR
notes: Mouse monoclonal from a hybridoma (immunogen HER2ec made in LN229 cells); also called antibody of the present invention

Kd [1]: 22.8 nM
koff [1]: 0.00543 s⁻¹
kon [1]: 238000 M⁻¹ s⁻¹
Kd [2]: 17.6 nM
koff [2]: 0.00588 s⁻¹
kon [2]: 334000 M⁻¹ s⁻¹
Kd [3]: 17.6 nM
koff [3]: 0.00578 s⁻¹
kon [3]: 329000 M⁻¹ s⁻¹
Kd [4]: 16.9 nM
koff [4]: 0.00564 s⁻¹
kon [4]: 335000 M⁻¹ s⁻¹
B2: H2Mab-214 antibody (antibody, V domains shown)
VH: QVTLKESGPGILQPSQTLSLTCSFSGFSLSTSGMGVSWIRQPSGKGLEWLAHIFWDDDKRYNPSLKSRLTISKDTSRNKVFLKITSVDTADTATYYCARRVVATDWYFDVWGAGTTVTVSS
VL: DIVLTQSPASLAVSLGQRATISCRASESVEYYGTTLMQWYQQKPGQPPKLLIYAASKVESGVPARFSGSGSGTDFSLNIHPVEEDDVAMYFCQQSRKVPLTFGAGTKLELKR
notes: as for B1
